Experimental data reported in patent US20210009975A1 (UNIVERSITY OF GEORGIA RESEARCH FOUNDATION, published 2021).
Residue numbers refer to the chain shown, from its start. Names and notes keep the numbering of the source.

Legend:
[1] = target: proteins of MCF7 cell-free extract; test: LAC, Sia-PS1 column, elution with 3′SL and 6′SL
[2] = target: proteins of MCF7 cell-free extract; test: LAC, Sia-PS1 column, approximately 500 µg CFE loaded
[3] = target: proteins of MCF7 cell-free extract; test: LAC, Sia-PS1 column, about 1.5 mg MCF7 proteins circulated at 4 °C overnight
fetuin [4] = target: fetuin (UniProt P12763)
[5] = target: 3'-sialyllactose-BSA (bovine)
[6] = target: 3'-sialyllactose-BSA (bovine); test: LAC, Sia-3S1 column, 100 µg loaded
fetuin [7] = target: fetuin (UniProt P12763); test: LAC, Sia-3S1 coupled to Sepharose column, 100 µg fetuin loaded
[8] = target: 3'-sialyllactose-BSA (bovine); test: LAC, Sia-3S1 column, 50 µg loaded, 10 mM EPPS pH 7.5 with 110 mM NaCl
asialofetuin = target: T1, asialofetuin (UniProt P12763 19-359, de-sialylated glycans); test: Western blot, Sia-3S1 as probe, anti-poly-His-HRP detection
T1 construct: also called de-sialylated fetuin
T1 sequence: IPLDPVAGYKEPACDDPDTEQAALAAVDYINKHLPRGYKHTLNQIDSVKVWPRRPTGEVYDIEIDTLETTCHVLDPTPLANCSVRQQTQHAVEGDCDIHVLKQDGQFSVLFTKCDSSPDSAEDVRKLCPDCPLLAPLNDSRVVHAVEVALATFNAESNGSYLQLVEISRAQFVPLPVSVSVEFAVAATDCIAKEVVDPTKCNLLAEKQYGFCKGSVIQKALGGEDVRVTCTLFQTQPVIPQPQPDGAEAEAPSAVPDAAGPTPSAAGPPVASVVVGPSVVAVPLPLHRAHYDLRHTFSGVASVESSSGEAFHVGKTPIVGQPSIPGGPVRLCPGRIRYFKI

horseradish peroxidase = target: T2, horseradish peroxidase (horseradish, UniProt P00433 31-338); test: Lectenz affinity chromatography (LAC), Sia-PS1 coupled to Sepharose column
T2 construct: also called HRP
T2 sequence: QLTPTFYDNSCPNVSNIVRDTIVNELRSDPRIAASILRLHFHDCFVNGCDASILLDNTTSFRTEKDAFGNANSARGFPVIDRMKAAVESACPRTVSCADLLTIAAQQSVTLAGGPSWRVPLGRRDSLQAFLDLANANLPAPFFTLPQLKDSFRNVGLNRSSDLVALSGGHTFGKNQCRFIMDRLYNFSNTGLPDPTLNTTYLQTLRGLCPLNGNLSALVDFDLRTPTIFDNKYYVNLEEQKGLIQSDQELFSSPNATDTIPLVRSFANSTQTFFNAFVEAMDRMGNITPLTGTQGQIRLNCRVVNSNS

Chain of 3'-sialyllactose-BSA (bovine) (P02769 25-607 limits assumed): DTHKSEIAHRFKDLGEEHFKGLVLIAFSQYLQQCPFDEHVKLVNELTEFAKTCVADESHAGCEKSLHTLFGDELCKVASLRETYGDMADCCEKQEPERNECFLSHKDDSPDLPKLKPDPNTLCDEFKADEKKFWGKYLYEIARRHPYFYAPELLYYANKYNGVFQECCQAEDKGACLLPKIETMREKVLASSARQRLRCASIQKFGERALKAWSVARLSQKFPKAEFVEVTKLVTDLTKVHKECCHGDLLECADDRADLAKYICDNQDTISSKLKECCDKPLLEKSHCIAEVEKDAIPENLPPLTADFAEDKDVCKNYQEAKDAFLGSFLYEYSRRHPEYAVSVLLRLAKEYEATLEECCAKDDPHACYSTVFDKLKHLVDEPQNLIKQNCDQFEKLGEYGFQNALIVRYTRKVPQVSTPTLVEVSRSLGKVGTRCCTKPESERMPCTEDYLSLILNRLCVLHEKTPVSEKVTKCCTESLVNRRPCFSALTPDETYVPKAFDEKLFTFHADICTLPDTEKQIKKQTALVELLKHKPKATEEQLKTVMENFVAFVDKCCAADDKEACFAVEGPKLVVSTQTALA

Work on “Sia-PS1 Lectenz (NanB residues 30-697 with Y653F) (designed binder)” yielded a percent of total proteins bound to the column [1] of 10%, an amount of bound proteins (elution peak) [2] of 30 µg and an amount of unbound proteins (flow-through peak) [2] of 319 µg. It also gave an amount of protein in eluted peak [3] of 207 µg and a percent of loaded proteins in eluted peak [3] of 13.8%.

“Sia-3S1 Lectenz (NanB residues 30-697 with R193A, D270Q, A538V, E541D) (designed binder)” was tested, and the percent of bound fetuin competitively eluted by 3′SL (fetuin [4]) was 100%, the percent of bound fetuin competitively eluted by 6′SL (fetuin [4]) was 50% and the 3'SL-BSA Elution (amount of bound 3'SL-BSA eluted from the column) [5] was 45 µg. The amount in flow through [6] was 5 µg, the amount bound to the column (fetuin [7]) was 85 µg and the amount that did not bind to the column [8] was 5 µg.

B1: Sia-3S1 Lectenz (NanB residues 30-697 with R193A, D270Q, A538V, E541D) (designed binder)
chain: NELNYGQLSISPIFQGGSYQLNNKSIDISSLLLDKLSGESQTVVMKFKADKPNSLQALFGLSNSKAGFKNNYFSIFMRDSGEIGVEIRDAQKGINYLFSRPASLWGKHKGQAVENTLVFVSDSKDKTYTMYVNGIEVFSETVDTFLPISNINGIDKATLGAVNAEGKEHYLAKGSIDEISLFNKAISDQEVSTIPLSNPFQLIFQSGDSTQANYFRIPTLYTLSSGRVLSSIDARYGGTHQSKSKINIATSYSDDNGKTWSEPIFAMKFNDYEEQLVYWPRDNKLKNSQISGSASFIDSSIVEDKKSGKTILLADVMPAGIGNNNANKADSGFKEINGHYYLKLKKNGDNDFRYTVRENGVVYNETTNKPTNYTINDKYEVLEGGKSLTVEQYSVDFDSGSLRERHNGKQVPMNVFYKDSLFKVTPTNYIAMTTSQNRGESWEQFKLLPPFLGEKHNGTYLCPGQGLALKSSNRLIFATYTSGELTYLISDDSGQTWKKSSASIPFKNVTADAQMVELRDGVIRTFFRTTTGKIAYMTSRDSGETWSKVSYIDGIQQTSYGTQVSAIKYSQLIDGKEAVILSTPNSRSGRKGGQLVVGLVNKEDDSIDWKYHYDIDLPSYGYAYSAITELPNHHIGVLFEKYDSWSRNELHLSNVVQYIDLEINDLTK
notes: also called Sia-31 [sic]; not shown: N-terminal hexa-histidine tag
B1: no binding (tested: 1 µM) (asialofetuin).

B2: Sia-PS1 Lectenz (NanB residues 30-697 with Y653F) (designed binder)
chain: B1 chain with A164R, Q241D, V509A, D512E, Y624F
B2: no binding (horseradish peroxidase).
